This note sets out measurements from the supplement of paper PMC10724198.

± gives the standard deviation of the averaged measurements.

The data set relates to Saccharomyces cerevisiae. In words: protein stability index of tFT-peptide fusion (C-terminal peptide) (PSI (0-1 scale)); higher = more stable (slower turnover). To be noted: temperature: 30 C. How it is done: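 MPS profiling in S. cerevisiae of the yeast C-terminome library: the last 12 aa of each annotated ORF are fused to the C-terminus of a sfGFP-mCherry timer, after a GGGS linker. Cells are FACS-sorted into 8 mCherry/sfGFP bins and deep-sequenced. PSI runs from 0 (unstable) to 1 (stable); wild type and das1Δ backgrounds, two technical replicates each.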

Setting [1] is: genetic background: das1 deletion.

DFVYNEEDFEKL [NOT5 C-terminal 12 aa]: the protein stability index was 0.718 ± 0.015 under setting [1] and 0.681 ± 0.014 (genetic background: wild type).

With DGKSVNKYGAKK [GUS1 C-terminal 12 aa], the protein stability index is 0.6798 ± 0.0063 under setting [1] and 0.699 ± 0.029 (genetic background: wild type).

On to DGKVIYELEDKE [GET3 C-terminal 12 aa], for which the protein stability index under setting [1] is 0.727 ± 0.021 and the protein stability index (genetic background: wild type) came out at 0.6753 ± 0.0058.

Consider DGSGKYFLKHDS [KTR2 C-terminal 12 aa], for which the protein stability index under setting [1] was found to be 0.706 ± 0.0039 and the protein stability index (genetic background: wild type) stood at 0.708 ± 0.04.

For the sequence DHKVGAQVSYKY [MAD2 C-terminal 12 aa], the protein stability index runs as follows: under setting [1], 0.71 ± 0.0075; (genetic background: wild type) 0.675 ± 0.017.

With DIGKKKYSHSSN [RER1 C-terminal 12 aa], the protein stability index runs as follows: under setting [1], 0.673 ± 0.043; (genetic background: wild type) 0.686 ± 0.049.

In the case of DKEQQQQQQQQP [ZDS1 C-terminal 12 aa], the protein stability index was 0.702 ± 0.0076 under setting [1] and 0.708 ± 0.032 (genetic background: wild type).

For the sequence DKEVLHVKADSL [FTR1 C-terminal 12 aa], the protein stability index under setting [1] is 0.7131 ± 0.0063 and the protein stability index (genetic background: wild type) amounted to 0.7 ± 0.047.

DLAYQYVRALEL [SRB2 C-terminal 12 aa]: the protein stability index was found to be 0.683 ± 0.013 under setting [1] and 0.673 ± 0.0094 (genetic background: wild type).

On to DLDLDLFDPDDF [MED4 C-terminal 12 aa], for which the protein stability index reads like this: under setting [1], 0.7055 ± 0.0036; (genetic background: wild type) 0.684 ± 0.044.

For DLSSFFNYRSVQ [SPH1 C-terminal 12 aa], the protein stability index is, setting by setting: under setting [1], 0.75 ± 0.015; (genetic background: wild type) 0.7374 ± 0.0021.

DLSTRIYSLAYE [ELP2 C-terminal 12 aa]: the protein stability index by setting is: under setting [1], 0.71 ± 0.051; (genetic background: wild type) 0.665 ± 0.011.

DLYTEEFLKEGK [PRP39 C-terminal 12 aa] gave a protein stability index under setting [1] of 0.683 ± 0.035 and a protein stability index (genetic background: wild type) of 0.6685 ± 0.0064.

On to DNFNSAPSYFSK [MIG3 C-terminal 12 aa], for which the protein stability index was 0.6975 ± 0.0012 under setting [1] and 0.682 ± 0.052 (genetic background: wild type).

Consider DNGRIIITGIPN [ECM5 C-terminal 12 aa], for which the protein stability index runs as follows: under setting [1], 0.681 ± 0.024; (genetic background: wild type) 0.675 ± 0.033.

In the case of DNYLKYIKALLL [MSH2 C-terminal 12 aa], the protein stability index by setting is: under setting [1], 0.71 ± 0.029; (genetic background: wild type) 0.445 ± 0.026.

For the sequence DPERQNNSNFYN [SMC6 C-terminal 12 aa], the protein stability index amounted to 0.702 ± 0.052 under setting [1] and 0.686 ± 0.026 (genetic background: wild type).

As for DPFLYSCSRVAF [YDL196W C-terminal 12 aa], the protein stability index by setting is: under setting [1], 0.729 ± 0.038; (genetic background: wild type) 0.702 ± 0.012.

In the case of DQIYWFNHFSNV [AIM2 C-terminal 12 aa], the protein stability index is, setting by setting: under setting [1], 0.7141 ± 0.0021; (genetic background: wild type) 0.696 ± 0.027.

As to DRKRRKLLWYQA [MRPL20 C-terminal 12 aa], the protein stability index was 0.718 ± 0.045 under setting [1] and 0.2489 ± 0.00046 (genetic background: wild type).

In the case of DSDNAAPLHDEL [KRE5 C-terminal 12 aa], the protein stability index under setting [1] is 0.687 ± 0.017 and the protein stability index (genetic background: wild type) was determined as 0.685 ± 0.048.

Regarding DSEDDNDTSSES [PRP38 C-terminal 12 aa], the protein stability index is, setting by setting: under setting [1], 0.682 ± 0.026; (genetic background: wild type) 0.6733 ± 0.0012.

Take DSMRGNSRNNMF [EBS1 C-terminal 12 aa]: the protein stability index reads like this: under setting [1], 0.7083 ± 0.0062; (genetic background: wild type) 0.717 ± 0.021.

For DSTAPKPIPGKE [YKL030W C-terminal 12 aa], the protein stability index turned out to be 0.68 ± 0.0037 under setting [1] and 0.663 ± 0.009 (genetic background: wild type).

In turn, DTSLYRYRSYGY [PUF2 C-terminal 12 aa] showed a protein stability index under setting [1] of 0.7007 ± 0.0045 and a protein stability index (genetic background: wild type) of 0.683 ± 0.033.

Regarding DTSPAQEQSPAN [ARG80 C-terminal 12 aa], the protein stability index reads like this: under setting [1], 0.695 ± 0.026; (genetic background: wild type) 0.709 ± 0.013.

DTTFTGCTKKIL [YGL102C C-terminal 12 aa]: the protein stability index came out at 0.698 ± 0.023 under setting [1] and 0.66 ± 0.019 (genetic background: wild type).

As for DVEVVCRQNNFV [YDR327W C-terminal 12 aa], the protein stability index under setting [1] was found to be 0.723 ± 0.0082 and the protein stability index (genetic background: wild type) was found to be 0.724 ± 0.025.

With DYKLLKELASQV [GLT1 C-terminal 12 aa], the protein stability index was 0.66531 ± 0.00065 under setting [1] and 0.635 ± 0.054 (genetic background: wild type).

As to DYLYAKDDLLKW [GPP1 C-terminal 12 aa], the protein stability index runs as follows: under setting [1], 0.7287 ± 0.0048; (genetic background: wild type) 0.709 ± 0.011.

With EALVKQITSVKQ [SCC4 C-terminal 12 aa], the protein stability index by setting is: under setting [1], 0.6973 ± 0.006; (genetic background: wild type) 0.701 ± 0.015.

In the case of EDGAVGNLFDDN [MSN5 C-terminal 12 aa], the protein stability index reads like this: under setting [1], 0.681 ± 0.018; (genetic background: wild type) 0.667 ± 0.033.

EDGRPPQNDFKE [TIM22 C-terminal 12 aa] came in with a protein stability index under setting [1] of 0.699 ± 0.0092 and a protein stability index (genetic background: wild type) of 0.734 ± 0.057.

In turn, EDHKFDLSTITV [MRPL24 C-terminal 12 aa] returned a protein stability index under setting [1] of 0.703 ± 0.01 and a protein stability index (genetic background: wild type) of 0.717 ± 0.023.

Take EDKGLLSCCTVM [YCP4 C-terminal 12 aa]: the protein stability index was 0.786 ± 0.011 under setting [1] and 0.743 ± 0.032 (genetic background: wild type).

Regarding EEADSLYISMGL [LCD1 C-terminal 12 aa], the protein stability index runs as follows: under setting [1], 0.709 ± 0.021; (genetic background: wild type) 0.701 ± 0.012.

Take EEAFGKVQTKTF [SOL3 C-terminal 12 aa]: the protein stability index was 0.7098 ± 0.0052 under setting [1] and 0.7564 ± 0.0044 (genetic background: wild type).

For the sequence EEFSSGDYSMDY [RIE1 C-terminal 12 aa], the protein stability index turned out to be 0.7024 ± 0.006 under setting [1] and 0.66 ± 0.025 (genetic background: wild type).

Turning to EEMIRSSSLYDE [ACA1 C-terminal 12 aa], the protein stability index by setting is: under setting [1], 0.7312 ± 0.0059; (genetic background: wild type) 0.711 ± 0.029.

Take EENENDCDSEIQ [RTS1 C-terminal 12 aa]: the protein stability index is, setting by setting: under setting [1], 0.7103 ± 0.0013; (genetic background: wild type) 0.696 ± 0.0094.

Take EGVRNRRKALKK [ARO3 C-terminal 12 aa]: the protein stability index was 0.684 ± 0.027 under setting [1] and 0.669 ± 0.022 (genetic background: wild type).

Consider EGVSIIESTFIN [YLR225C C-terminal 12 aa], for which the protein stability index is, setting by setting: under setting [1], 0.693 ± 0.012; (genetic background: wild type) 0.68 ± 0.051.

Regarding EHCPGVNEDDHK [CMG1 C-terminal 12 aa], the protein stability index under setting [1] is 0.703 ± 0.011 and the protein stability index (genetic background: wild type) is 0.701 ± 0.026.

Consider EIKKIYQNEKKI [DPC7 C-terminal 12 aa], for which the protein stability index by setting is: under setting [1], 0.726 ± 0.044; (genetic background: wild type) 0.677 ± 0.029.

For EILSMPDLSKYQ [SDH5 C-terminal 12 aa], the protein stability index by setting is: under setting [1], 0.6922 ± 0.0032; (genetic background: wild type) 0.704 ± 0.044.

In the case of EINNNLGVRLVD [DMA1 C-terminal 12 aa], the protein stability index by setting is: under setting [1], 0.711 ± 0.012; (genetic background: wild type) 0.697 ± 0.026.

In turn, EIRNMVINSTKD [BFA1 C-terminal 12 aa] returned a protein stability index under setting [1] of 0.713 ± 0.008 and a protein stability index (genetic background: wild type) of 0.688 ± 0.021.

For the sequence EKDELDNIEVSK [QCR7 C-terminal 12 aa], the protein stability index amounted to 0.696 ± 0.0052 under setting [1] and 0.683 ± 0.0078 (genetic background: wild type).

Regarding EKFLGKKKTKTD [GPI16 C-terminal 12 aa], the protein stability index stood at 0.701 ± 0.06 under setting [1] and 0.689 ± 0.05 (genetic background: wild type).

Take EKKIATRGAFAC [MCO32 C-terminal 12 aa]: the protein stability index under setting [1] stood at 0.707 ± 0.01 and the protein stability index (genetic background: wild type) turned out to be 0.7 ± 0.012.

With EKQYVKILDDTH [CSF1 C-terminal 12 aa], the protein stability index amounted to 0.716 ± 0.011 under setting [1] and 0.695 ± 0.037 (genetic background: wild type).

For EKRFPEVMMLEK [FET4 C-terminal 12 aa], the protein stability index amounted to 0.703 ± 0.026 under setting [1] and 0.679 ± 0.0099 (genetic background: wild type).

The sequence EKVNEILRSTEK [GCD14 C-terminal 12 aa] returned a protein stability index under setting [1] of 0.69 ± 0.0098 and a protein stability index (genetic background: wild type) of 0.717 ± 0.0097.

As for EKWKINKKETVE [MOD5 C-terminal 12 aa], the protein stability index by setting is: under setting [1], 0.697 ± 0.03; (genetic background: wild type) 0.7095 ± 0.0026.

Consider ELAYKSFYALLD [VPS28 C-terminal 12 aa], for which the protein stability index runs as follows: under setting [1], 0.691 ± 0.019; (genetic background: wild type) 0.702 ± 0.045.

ELENEHVPWGKK [HNM1 C-terminal 12 aa]: the protein stability index under setting [1] was 0.714 ± 0.032 and the protein stability index (genetic background: wild type) was determined as 0.667 ± 0.015.

As for ELIISKREIEKE [GEA1 C-terminal 12 aa], the protein stability index under setting [1] came to 0.724 ± 0.022 and the protein stability index (genetic background: wild type) was 0.731 ± 0.079.

Turning to ELKRSGKLTRSV [TRM7 C-terminal 12 aa], the protein stability index was determined as 0.699 ± 0.0086 under setting [1] and 0.662 ± 0.013 (genetic background: wild type).

Regarding ELLYLIIAGLHI [FYV5 C-terminal 12 aa], the protein stability index runs as follows: under setting [1], 0.6959 ± 0.0029; (genetic background: wild type) 0.7 ± 0.05.

Take ELRERLLRPSKK [YPL245W C-terminal 12 aa]: the protein stability index under setting [1] was found to be 0.7246 ± 0.0023 and the protein stability index (genetic background: wild type) came out at 0.771 ± 0.032.

With ELTKQHGNKDSN [RTK1 C-terminal 12 aa], the protein stability index runs as follows: under setting [1], 0.7 ± 0.025; (genetic background: wild type) 0.659 ± 0.0056.

Regarding ENDDHLYIFGRN [TIM18 C-terminal 12 aa], the protein stability index reads like this: under setting [1], 0.743 ± 0.033; (genetic background: wild type) 0.731 ± 0.045.

As for ENVEEDKEVHTN [PBI2 C-terminal 12 aa], the protein stability index is, setting by setting: under setting [1], 0.675 ± 0.036; (genetic background: wild type) 0.6976 ± 0.0046.

On to EPSLRGHLIFVL [YBR300C C-terminal 12 aa], for which the protein stability index runs as follows: under setting [1], 0.515 ± 0.0098; (genetic background: wild type) 0.5178 ± 0.0049.

As to EQAAKYIEYLNL [RAD10 C-terminal 12 aa], the protein stability index by setting is: under setting [1], 0.817 ± 0.019; (genetic background: wild type) 0.603 ± 0.045.

EQEVIFTDLTAY [ECM32 C-terminal 12 aa]: the protein stability index reads like this: under setting [1], 0.742 ± 0.015; (genetic background: wild type) 0.7 ± 0.012.

Consider EQHNVLDTKKNE [SPC2 C-terminal 12 aa], for which the protein stability index runs as follows: under setting [1], 0.687 ± 0.037; (genetic background: wild type) 0.649 ± 0.029.

For the sequence ERDGYYYLKRSS [VHT1 C-terminal 12 aa], the protein stability index reads like this: under setting [1], 0.715 ± 0.019; (genetic background: wild type) 0.694 ± 0.02.
